# B1: micro-plasmin (enzyme, human, UniProt P00747 562-810, looked up)
# chain: APSFDCGKPQVEPKKCPGRVVGGCVAHPHSWPWQVSLRTRFGMHFCGGTLISPEWVLTAAHCLEKSPRPSSYKVILGAHQEVNLEPHVQEIEVSRLFLEPTRKDIALLKLSSPAVITDKVIPACLPSPNYVVADRTECFITGWGETQGTFGAGLLKEAQLPVIENKVCNRYEFLNGRVQSTELCAGHLAGGTDSCQGDSGGPLVCFEKDKYILQGVTSWGLGCARPNKPGVYVRVSRFVTWIEGVMRNN
# notes: domain: micro-plasmin; Made as in Reed et al., 1999; also called human micro-plasmin
# B2: pork trypsin (enzyme, UniProt P00761 9-231, looked up)
# chain: IVGGYTCAANSIPYQVSLNSGSHFCGGSLINSQWVVSAAHCYKSRIQVRLGEHNIDVLEGNEQFINAAKIITHPNFNGNTLDNDIMLIKLSSPATLNSRVATVSLPRSCAAAGTECLISGWGNTKSSGSSYPSLLQCLKAPVLSDSSCKSSYPGQITGNMICVGFLEGGKDSCQGDSGGPVVCNGQLQGIVSWGYGCAQKNKPGVYTKVCNYVNWIQQTIAAN
# B3: native human α2-antiplasmin (other, UniProt P08697 40-491, looked up)
# chain: NQEQVSPLTLLKLGNQEPGGQTALKSPPGVCSRDPTPEQTHRLARAMMAFTADLFSLVAQTSTCPNLILSPLSVALALSHLALGAQNHTLQRLQQVLHAGSGPCLPHLLSRLCQDLGPGAFRLAARMYLQKGFPIKEDFLEQSEQLFGAKPVSLTGKQEDDLANINQWVKEATEGKIQEFLSGLPEDTVLLLLNAIHFQGFWRNKFDPSLTQRDSFHLDEQFTVPVEMMQARTYPLRWFLLEQPEIQVAHFPFKNNMSFVVLVPTHFEWNVSQVLANLSWDTLHPPLVWERPTKVRLPKLYLKHQMDLVATLSQLGLQELFQAPDLRGISEQSLVVSGVQHQSTLELSEVGVEAAAATSIAMSRMSLSSFSVNRPFLFFIFEDTTGLPLFVGSVRNPNPSAPRELKEQQDSPGNKDFLQSLKGFPRGDKLFGPDLKLVPPMEEDYPQFGSPK
# modifications: radioiodinated (125I) in the binding assays
# notes: mature; Bought native protein; also called native human α2-AP; native α2-AP
# Experiments:
# [1] = biological target: B3; test: k1, rate constant of reversible complex formation, from continuous inhibition kinetics with S-2251
# Protocol: (§1) Native α₂-AP (1.8 μM) was pre-incubated with or without of MAbs (49, 77, Dig-control; 1.8 μM or RWR 1.8 μM and 18 μM) for 60 min at 4° C. The fast inhibition of plasmin, micro-plasmin and trypsin was examined by a continuous method as described (Wiman, B. and Collen, D. On the kinetics of the reaction between human antiplasmin and plasmin. Eur J Biochem 1978; 84: 573-578). The serine protease (20 nM) was added to a cuvette containing S-2251 (500 μM) in 300 μl of TBS buffer, and the change in absorbance at 405 nm was recorded at 0.1-min intervals prior to and after the addition of 10 μl of α₂-AP (1.8 μM) or preformed α₂-AP/MAb complex. The final concentration of α₂-AP in the cuvette was 60 nM. The percentage of residual protease activity was calculated from the initial value (defined as 100%). The inhibition constant (i.e., k₁, the rate constant of reversible complex formation) was determined as described (Turner et al., 2002, J Biol. Chem. 277:33068-33074).
# [2] = biological target: T1, human Lys-plasmin (human, UniProt P00747 97-810); test: cell-based or functional assay
# [3] = biological target: T1, human Lys-plasmin; test: k1, rate constant of reversible complex formation, from continuous inhibition kinetics with S-2251
# Protocol: as §1
kon [1] [M⁻¹ s⁻¹],stoichiometry of inhibition (SI) [2],kon [3] [M⁻¹ s⁻¹],Binder
33000,,,B1
476000,,,B2
,1.1,> 2.6e+06,B3
